Measurements reported in a protein production outcome set (Wang et al. 2014).

Assay: label from the status in PepcDB records
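Also: failed if final PepcDB status was selected cloned or expressed and not failed if soluble or beyond.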

Sequence | protein production
MNAADLTIWLVAGAGVLSFISPCSLPLYPSYLSYITGVSIQDLKENRGIMQKSAIIHTVFFMIGFSVIFYALGLSVSWIGITFSSNQKLIQQIGGIFIVLMGLFMTGLFQPKWLMAEKKVQYRSKSTGYIRSILVGMTYAAGWTPCVGPIFSAVLMLGATNPEGALLYITAYTLGFAVPFFVMAFFIGKVKWIVTYANVMMKIGGGMMIVTGILLYTNQMTKITAFFIRLFGGFTGF | failed
MTHRIAPRCFSTIMLLCLLYTSPLDVIAQGQGGQGDIPVVNPTAPGGSTTTPTITQPSPPSLTFPGPTTPTGGYPPLDGTTPTGGYPPLYGTTPPGGGDVGGGGGGYGGGTPGGGGGGGGDTGAGAGGGGYGGGGDTGAGGGVGSGQWCIAKANASPTSLQVALDYACGYGGADCGQIQQGAACYEPNTIRDHASFAFNSYYQKHPGSDSCNFGGAAQLTSTDPSKTS | failed
MASNEAGRALPKFGEWDVNDPATADGFTVIFSKAGEDKKTGRSSTKTNSQRKQDGDKPAVKKWLCFTFA | not failed
MNALVAHNSEAWDKKVETGNEWTVAVEQQVIEQAKKGNWDIRVTPMKDVPKDWFPPIKGLKVLCLASGGGQQGPVLAAAGADVTVLDNSEKQLNQDRMIAERDGLTIHTVKGSMDDLSVFNDESFDVIVHPVANVFVENVLPVWKEAYRVLKRNGILISGFVNPVVFLFDTVLEQQGVLKVKHSIPYADPEDLPKHKVKELIENNEALEFGHSLEDQIKGQIDAGFIVTGFYEDKGGFVLDQYIHTYSATRSVKVLEHHHHHH | not failed
MKRIKLVRHGESAANAGQASRNHESIPLTHRGLEQAITVARSFTKAPELIVASPFSRAQATAQETSAIFPTVAIETWPIQEFTYLAPARCVDTTVAQRRDWVDAYWARAEPAFCDGEGAESFLDFVYRAQAFLKQLAGHSAANTVVFSHGQFLNAVAWLLERRPQSLDRHAMADWRRYEIENHIPNGCGFYLSQSSTGAEWVLGHRNY | failed
MIGREGVTTLRFTVKQQFITHKHTLYGVAAILLWGSLMALTRRVAEEFSPIGGAALIYTVSTLFLLFAMGMPRLKAGSSRYILIGGALFVSYEICLALALGMASDRLQAIEMSVINYLWPALTVLIAVLLSQRAVSFWVYPSVGLAFAGVAWTIVAEQGISLADFSARIATNPAVYAMALTGAFIWAIYCNVTQRLARGQNAIVLFFAATAATLWLQYALSNEPALSFTGSSMGTLLLTGIVMGSGYALWNVAILRGNMLLLATLSYFTPVISTLFSSLILGVVLGLSFWQGVIMVTFGSLICWWVTRESSSSTGEVPETPPPLKEQS | failed
MQSYAADLIALGLLFLTGLAADQLGARSRLPRVTLLLICGLLAGSAGFDLIPESLAALYPIISVIALSMVAFLLGGELSLRTLSGHGRAIVVISVMVVLVTQLTVSAGLAMIGMPLAAALMVGALATATDPAATLDVIRQGRASGDFPRRLKGIVAIDDAWGVLLFGLVAVLAGAVEGNGSAHGLLGGALVEIAGSVALGLAVGLPGASLTGRLSGGEPLRIEALGLVFLTAGLSLWLDLSYLIAGMTAGAVIVNLAHHHKRAFREIEHIEWPFMIVFFILAGASLDLSALWAVGPLLMGYVALRVLGRVLGGWAGAALAATARGERPWYGPALLPQAGVAIGMALIAGDLFPQYADMITALAIGATVVFELAGPLAAAYALRRVRDSRDQSAA | failed
MNNTPVEPVRLTPDNPLVSVVIRTKDRPKRLAEAVRSVREQTHRPLEVIVVNDGGWPLPEEALKEQAGDVELILIQLEQNQGRSIAANTGLQAATGRYLCFLDDDDRFLPDHIELLSSCLEHIEHRVCYSDAELCWQVYNVETGEFDIVNRQVFGSRDFNLAELLCGNYIPLNTLLFDRQVLLQVGGFDPQFDIYEDWDLLLRVGSLYPFYHLPRVTAQYNQWSKDHQNFYNHFSQTGQAPLLHITGYDRLIEKNRHLFSADAARHLLSVINRLRAIEAELAQRDAVPAESPLTRLTAQLEQTLATIGPSFATLEGRLADLDACQRDALVSATSKLNEGVSDLDGLRSQVAHLCMEFENASGKIDTSQAELQKTATLLVQTQNLLEDYRKEIARTTELNRLISERDSELRTLRQTIARNEAEITALHKERNEANATISALDEKVAHAETEKASLHQIIAQTEARLASVYGSTSWRIAAPLRAVSVAVRWLLRNTRRAFLLMWWLCTGQYARATNHAFPHLWRHVPPRLKMIIPPRLAGSVKRRLHLADITAPRPLENQPDNSHPDTTAEAHVTLDVPERHYVDLSSEPVAHTPIKAIAFYLPQFHTIPENDKWWGEGFTEWTNTRKGKPLFDGHHQPRVPLHLGYYNLENIEVYAQQVQLARKAGLYGFCFYFYWFGGKTLLEKPLLNMLANPQIDQPFCLCWANENWTRRWDGLDDDILIAQHHSEEDAIAFLRYINTYFRDDRYIKIDGKPLLLVYRPSIIPDITHIQEVWRKHATELGWPGIYLVSAQTFGQKDPRDFHFDAAVQFPPQHAAPCAAFHSETPNLADDFEGCVFDYHNVATQFCDSPEVDYKLFRSVTLAWDNSARRGKRATILRNFSLTSYAQWLLTACKATLADHNLTENERLVFINCMERMGRGHLSGAGHQIWLWIPGSHKKGAECILGWKTQAIRNRSKL | failed
MAKKTMGIHHITAIVGHPQENTDFYAGVLGLRLVKQTVNFDDPGTYHLYFGNEGGKPGTIITFFPWAGARQGVIGDGQVGVTSYVVPKGAMAFWEKRLEKFNVPYTKIERFGEQYVEFDDPHGLHLEIVEREEGEANTWTFGEVTPDVAIKGFGGATLLSEQPDKTADLLENIMGLERVGKEGDFVRYRSAGDIGNVIDLKLTPIGRGQMGAGTVHHIAWRANDDEDQLDWQRYIASHGYGVTPVRDRNYFNAIYFREHGEILFEIATDPPGFAHDETQETMGEKLMLPVQYEPHRTQIEQGLLPFEVRELD | not failed
MGQTALARGSSSTPTSQALYSDFSPPEGLEELLSAPPPDLVAQRHHGWNPKDCSENIDVKEGGLCFERRPVAQSTDGVRGKRGYSRGLHAWEISWPLEQRGTHAVVGVATALAPLQADHYAALLGSNSESWGWDIGRGKLYHQSKGLEAPQYPAGPQGEQLVVPERLLVVLDMEEGTLGYSIGGTYLGPAFRGLKGRTLYPSVSAVWGQCQVRIRYMGERRVEEPQSLLHLSRLCVRHALGDTRLGQISTLPLPPAMKRYLLYK | failed
DIEALTLLEIADPIREDAAETLEYLRSEDVTLKIISGDNPVTVSHIAHQAGFADYQSYIDCSKVSDEELEALAEDTAIFGRVSPHQKKLLIQTLNANGHTTAMTGDGVNDILALREADCSIVMAEGDPATRQIANLVLMDSEFKDIPE | failed
MDKFYHFLTLTGIGLYWFLVAGVTLRVVLKRRAVSVSLAWLMIIYILPVLGVACYFLFGELNLGRKRAERAKEMFTPFAKWFSQLNDCHAHMPETMGRHIYRIDELCNNRLGLPALSGNTLSLQQSPDEILHSIIEDIENAKTSIRMVFYIWHPGGLADSVASALIQASKRGVDVKLLLDSAGSPRFFRSPWYKMMKDSGIEVIQALEVKMWRMFLRRLDLRQHRKIIVIDDEIAYTGSMNLVDPAYFKQSSGVGRWIDIMVRVTGPTVNVLSAIHCWDWEVETGERYLPKLPECKIDNSKYQHPIQVVPSGPGMPEYLIYQVLTLAINQANRSVRITTPYFVPNTDLLETLKMTAQRGIDVELIIPHKNDSLMVQWASRAFYSELLAAGVKIYEFYGGLLHTKSVVIDDQFCLVGTVNMDMRSLWLNFEVTLAVDDEEFTKQLSWLQDGYIKQSHPVVLDEWEKRSLYSRFLERVFYLFNPLL | failed
MTRSRRGALARSSEGGPFPTADPVADRALCGWRVRSVIDLPELPLWTRDDRLPDVTIAFGRVTPVESASPGMNWHVVGEGRFRFTVASVGSYRISRGRVITIDPQAGVVASAVRQYLLGTAFGVLCHQRGLLPLHASCVAINGRAVAIAGASGAGKSSLAAALVRLGYPLLGDDVCVIDASEINAPHVLPAIPRLKLWRDVLDTFGLIVDPAARILEGIDKYQAQALADRPPPPPPQVPLPLGVVYYLDQAESPDDEGFHAIRGAERAAALAGAVYRRKMGLAMGLLPQIFTATMTVGALVPGHRLLRHGDLSGLDALARSVAARQEGRGLEHHHHHH | failed
MRIGVYVCHCGLNIAGVIDVSALEEMAGELEDVVLAREVQFLCSDSGQEGIIKDIKDNKIDRVVIAACSPRLHEKTFRHVMEKADLNPYLMEMVNIREQCSWVHADDPQMATQKAFDLIRMGVAKARFLRELSATSSKASRNVLIIGGGVAGIEAALNLAEAGFPVTMVERESTIGGKMALMNEVFPTNDCSICVLAPKMTEVQNHPNITLYTYSEVTDISGSVGKFHVRVTRKPRFVLEDKCKGCVDLCSEVCPVEIENPMNYGIGKSRAIYMPIPQSVPQVVLIDPDHCVGCGLCQLACPAEAVDYEQKPEEIEFEAGAVIVSTGYQLFDASRKKEYGFGKYPDVITNMQLERMLNSAGPTGGRVLVPSTGQPPESVAFIQCVGSRDKTVGNEHCSRVCCMAALKNSQMVKERYPGTDITIHYIDIRAAGEMYEEYYARTQGMGVDFIRGKVAEVYAGEDGRPVVRYENTLESRVEEEAHDLVVLSTGYEPSKAAEGIGRMLNLARRPDRFFASAHPKMRPVDAPVSGVFLAGCASGPKEIQVSIAQGSACASKVMQLLGTGELEADPMGAHVDPDKCIGCRTCVEVCKFGKISIVDKKAVVDEVSCYGCGDCSAACPVGAIQMRNFENEQILAQVRAATAHKSQCPFVVAFLCNWCSYACADLTGMSRIHYPTNIRVIRTMCSARINPEFVLEALKGGADGVLVAGCRMDECHYIHGNFDAKKRMDVLKEIIKEIGLDPKRLRTLWISAAEGERFSNTITEFVKELEEIGPIGSELKREYTATGLEEVAK | failed
MTEAGASIVVTVKNEGKNLRELLESIEKNDFTNFETVVVDDLSTDDTEDIVKSYRFTVYKRIACSRGEGRNIGVDLSRYGYILFTDGDAKVSEHWISGMVSALAAGNDAVIGNTLYTGKRRYMQERVKIFLEGIEVTAPSVNLAYRKDRFRQLGGFDPKFVTAEDIDLNIRAVKAGFRFATCDSCVVYAKVRENLASFLRQAYWNGYGRYQLEMKHPGITRNTRVRLGHNFFDFLHMVSGAAGYLSARISEGKQGRLEHHHHHH | not failed
MLEMIYFAVVAIVGFFFYRKMNGKPMFGFKKKGKSQGGVEKRTAEKNGKKNKKNTPATEEIDEDNVDFFSAFVEDIKEVENHMIRYHDDTFVLIAEAHPVNYYLLSNAEQEAIDIKIESWLTTLEFNTKVYIQSKFVDLTDPVRKMTETMKGAKDLTPETVLYGQEVIDNLEYWQRSQPRYEQKRYLIYPYKVDISTITADTEEELEEKIVDKAFNELYRRYNASRNLLSKAKISVEMLTKDKLIELLYVAFNRRKAVKARFQDLIENENFSLYSTGETNERKLELMKKVLAEEKAEKSNNGVA | failed
MVAGRRKVVPGLVLLCLGALLARSLSVLIGINELLLAIALGAVLVNTVGIPERFRHGTATYNIWLAAGIVLLGSSLTVGMIIEVGATVLLLLVAAVTLTLVTVEVLARNVAGVTDRFGSLLAAGAGICGVSAVAAVGGAVRAKEMHIAYAAGVVLLVDAVTIVVYPIVGAVLDLPDVVFGVWAGVSMLSTGPVVAVGFAHSEVAGQWATITKLARNALIGVVALGYASYYARRGAGGSTSVRMLWENFPKFVLGFLVLVGLASLGAFSPAQQDMISTVVDWLFLLAFVGLGTQIRTAELRATGITPALIVFAAVLLVSVLSLAAALVVL | failed
MYSDKKNILQLVALLKAHGVRKIVLCPGSRNAAIVHTLANIEDFTCYSVTDERSAGFFAIGLSLQGGGPAAVCCTSGSALLNLHPAVAEAFYQQVPLIVISADRPAAWIGQMDGQTLPQPHVFGTLVKMSVNLPEVHTEEDEWFCNRLINEAILETTHHGKGPVHINVPISEPIYRFTAKTLPEVRVITRYQGL | failed
MKVIKGLTAGLIFLFLCACGGQQIKDPLNYEVEPFTFQNQDGKNVSLESLKGEVWLADFIFTNCETICPPMTAHMTDLQKKLKAGNIDVRIISFSVDPENDKPKQLKKFAANYPLSFDNWDFLTGYSQSEIEEFALKSFKAIVKKPEGEDQVIHQSSFYLVGPDGKVLKDYNGVENTPYDDIISDVKSASTLK | not failed
MRYVLYVPDISCNHCKMRISKALEELGVKNYEVSVEEKKVVVETENLDSVLKKLEEIDYPVESYQEV | not failed
